B1: UBAP2L (protein, UniProt Q14157 1-1087, looked up)
Ubiquitin-associated protein …: MMTSVGTNRARGNWEQPQNQNQTQHKQRPQATAEQIRLAQMISDHNDADFEEKVKQLIDITGKNQDECVIALHDCNGDVNRAINVLLEGNPDTHSWEMVGKKKGVSGQKDGGQTESNEEGKENRDRDRDYSRRRGGPPRRGRGASRGREFRGQENGLDGTKSGGPSGRGTERGRRGRGRGRGGSGRRGGRFSAQGMGTFNPADYAEPANTDDNYGNSSGNTWNNTGHFEPDDGTSAWRTATEEWGTEDWNEDLSETKIFTASNVSSVPLPAENVTITAGQRIDLAVLLGKTPSTMENDSSNLDPSQAPSLAQPLVFSNSKQTAISQPASGNTFSHHSMVSMLGKGFGDVGEAKGGSTTGSQFLEQFKTAQALAQLAAQHSQSGSTTTSSWDMGSTTQSPSLVQYDLKNPSDSAVHSPFTKRQAFTPSSTMMEVFLQEKSPAVATSTAAPPPPSSPLPSKSTSAPQMSPGSSDNQSSSPQPAQQKLKQQKKKASLTSKIPALAVEMPGSADISGLNLQFGALQFGSEPVLSDYESTPTTSASSSQAPSSLYTSTASESSSTISSNQSQESGYQSGPIQSTTYTSQNNAQGPLYEQRSTQTRRYPSSISSSPQKDLTQAKNGFSSVQATQLQTTQSVEGATGSAVKSDSPSTSSIPPLNETVSAASLLTTTNQHSSSLGGLSHSEEIPNTTTTQHSSTLSTQQNTLSSSTSSGRTSTSTLLHTSVESEANLHSSSSTFSTTSSTVSAPPPVVSVSSSLNSGSSLGLSLGSNSTVTASTRSSVATTSGKAPPNLPPGVPPLLPNPYIMAPGLLHAYPPQVYGYDDLQMLQTRFPLDYYSIPFPTPTTPLTGRDGSLASNPYSGDLTKFGRGDASSPAPATTLAQPQQNQTQTHHTTQQTFLNPALPPGYSYTSLPYYTGVPGLPSTFQYGPAVFPVAPTSSKQHGVNVSVNASATPFQQPSGYGSHGYNTGVSVTSSNTGVPDISGSVYSKTQQSFEKQGFHSGTPAASFNLPSALGSGGPINPATAAAYPPAPFMHILTPHQQPHSQILHHHLQQDGQTGSGQRSQTSSIPQKPQTNKSAYNSYSWGAN
B2: PNPLA6 (protein, UniProt Q8IY17 1-1375, looked up)
Patatin-like phospholipase …: MEAPLQTGMMGTSSHGLATNSSGAKVAERDGFQDVLAPGEGSAGRICGAQPVPFVPQVLGVMIGAGVAVVVTAVLILLVVRRLRVPKTPAPDGPRYRFRKRDKVLFYGRKIMRKVSQSTSSLVDTSVSATSRPRMRKKLKMLNIAKKILRIQKETPTLQRKEPPPAVLEADLTEGDLANSHLPSEVLYMLKNVRVLGHFEKPLFLELCRHMVFQRLGQGDYVFRPGQPDASIYVVQDGLLELCLPGPDGKECVVKEVVPGDSVNSLLSILDVITGHQHPQRTVSARAARDSTVLRLPVEAFSAVFTKYPESLVRVVQIIMVRLQRVTFLALHNYLGLTNELFSHEIQPLRLFPSPGLPTRTSPVRGSKRMVSTSATDEPRETPGRPPDPTGAPLPGPTGDPVKPTSLETPSAPLLSRCVSMPGDISGLQGGPRSDFDMAYERGRISVSLQEEASGGSLAAPARTPTQEPREQPAGACEYSYCEDESATGGCPFGPYQGRQTSSIFEAAKQELAKLMRIEDPSLLNSRVLLHHAKAGTIIARQGDQDVSLHFVLWGCLHVYQRMIDKAEDVCLFVAQPGELVGQLAVLTGEPLIFTLRAQRDCTFLRISKSDFYEIMRAQPSVVLSAAHTVAARMSPFVRQMDFAIDWTAVEAGRALYRQGDRSDCTYIVLNGRLRSVIQRGSGKKELVGEYGRGDLIGVVEALTRQPRATTVHAVRDTELAKLPEGTLGHIKRRYPQVVTRLIHLLSQKILGNLQQLQGPFPAGSGLGVPPHSELTNPASNLATVAILPVCAEVPMVAFTLELQHALQAIGPTLLLNSDIIRARLGASALDSIQEFRLSGWLAQQEDAHRIVLYQTDASLTPWTVRCLRQADCILIVGLGDQEPTLGQLEQMLENTAVRALKQLVLLHREEGAGPTRTVEWLNMRSWCSGHLHLRCPRRLFSRRSPAKLHELYEKVFSRRADRHSDFSRLARVLTGNTIALVLGGGGARGCSHIGVLKALEEAGVPVDLVGGTSIGSFIGALYAEERSASRTKQRAREWAKSMTSVLEPVLDLTYPVTSMFTGSAFNRSIHRVFQDKQIEDLWLPYFNVTTDITASAMRVHKDGSLWRYVRASMTLSGYLPPLCDPKDGHLLMDGGYINNLPADIARSMGAKTVIAIDVGSQDETDLSTYGDSLSGWWLLWKRLNPWADKVKVPDMAEIQSRLAYVSCVRQLEVVKSSSYCEYLRPPIDCFKTMDFGKFDQIYDVGYQYGKAVFGGWSRGNVIEKMLTDRRSTDLNESRRADVLAFPSSGFTDLAEIVSRIEPPTSYVSDGCADGEESDCLTEYEEDAGPDCSRDEGGSPEGASPSTASEMEEEKSILRQRRCLPQEPPGSATDA
B3: LRRC47 (protein, UniProt Q8N1G4 2-583, looked up)
Leucine-rich …: AAAAVSESWPELELAERERRRELLLTGPGLEERVRAAGGQLPPRLFTLPLLHYLEVSGCGSLRAPGPGLAQGLPQLHSLVLRRNALGPGLSPELGPLPALRVLDLSGNALEALPPGQGLGPAEPPGLPQLQSLNLSGNRLRELPADLARCAPRLQSLNLTGNCLDSFPAELFRPGALPLLSELAAADNCLRELSPDIAHLASLKTLDLSNNQLSEIPAELADCPKLKEINFRGNKLRDKRLEKMVSGCQTRSILEYLRVGGRGGGKGKGRAEGSEKEESRRKRRERKQRREGGDGEEQDVGDAGRLLLRVLHVSENPVPLTVRVSPEVRDVRPYIVGAVVRGMDLQPGNALKRFLTSQTKLHEDLCEKRTAATLATHELRAVKGPLLYCARPPQDLKIVPLGRKEAKAKELVRQLQLEAEEQRKQKKRQSVSGLHRYLHLLDGNENYPCLVDADGDVISFPPITNSEKTKVKKTTSDLFLEVTSATSLQICKDVMDALILKMAEMKKYTLENKEEGSLSDTEADAVSGQLPDPTTNPSAGKDGPSLLVVEQVRVVDLEGSLKVVYPSKADLATAPPHVTVVR
B4: CAV1 (protein, UniProt Q03135 2-178, looked up)
Caveolin-1: SGGKYVDSEGHLYTVPIREQGNIYKPNNKAMADELSEKQVYDAHTKEIDLVNRDPKHLNDDVVKIDFEDVIAEPEGTHSFDGIWKASFTTFTVTKYWFYRLLSALFGIPMALIWGIYFAILSFLHIWAVVPCIKSFLIEIQCISRVYSIYVHTVCDPLFEAVGKIFSNVRINLQKEI
B5: MOV10 (protein, UniProt Q9HCE1 1-1003, looked up)
Helicase MOV-10: MPSKFSCRQLREAGQCFESFLVVRGLDMETDRERLRTIYNRDFKISFGTPAPGFSSMLYGMKIANLAYVTKTRVRFFRLDRWADVRFPEKRRMKLGSDISKHHKSLLAKIFYDRAEYLHGKHGVDVEVQGPHEARDGQLLIRLDLNRKEVLTLRLRNGGTQSVTLTHLFPLCRTPQFAFYNEDQELPCPLGPGECYELHVHCKTSFVGYFPATVLWELLGPGESGSEGAGTFYIARFLAAVAHSPLAAQLKPMTPFKRTRITGNPVVTNRIEEGERPDRAKGYDLELSMALGTYYPPPRLRQLLPMLLQGTSIFTAPKEIAEIKAQLETALKWRNYEVKLRLLLHLEELQMEHDIRHYDLESVPMTWDPVDQNPRLLTLEVPGVTESRPSVLRGDHLFALLSSETHQEDPITYKGFVHKVELDRVKLSFSMSLLSRFVDGLTFKVNFTFNRQPLRVQHRALELTGRWLLWPMLFPVAPRDVPLLPSDVKLKLYDRSLESNPEQLQAMRHIVTGTTRPAPYIIFGPPGTGKTVTLVEAIKQVVKHLPKAHILACAPSNSGADLLCQRLRVHLPSSIYRLLAPSRDIRMVPEDIKPCCNWDAKKGEYVFPAKKKLQEYRVLITTLITAGRLVSAQFPIDHFTHIFIDEAGHCMEPESLVAIAGLMEVKETGDPGGQLVLAGDPRQLGPVLRSPLTQKHGLGYSLLERLLTYNSLYKKGPDGYDPQFITKLLRNYRSHPTILDIPNQLYYEGELQACADVVDRERFCRWAGLPRQGFPIIFHGVMGKDEREGNSPSFFNPEEAATVTSYLKLLLAPSSKKGKARLSPRSVGVISPYRKQVEKIRYCITKLDRELRGLDDIKDLKVGSVEEFQGQERSVILISTVRSSQSFVQLDLDFNLGFLKNPKRFNVAVTRAKALLIIVGNPLLLGHDPDWKVFLEFCKENGGYTGCPFPAKLDLQQGQNLLQGLSKLSPSTSGPHSHDYLPQEREGEGGLSLQVEPEWRNEL

Each molecule was assayed on GFP-14-3-3β (assay: GFP-14-3-3β co-IP with LC-MS/MS, untreated GFP-14-3-3β versus GFP control (14-3-3 interactome)). Details: untreated vs GFP; LFQ intensities; 3 replicates each.
Assay type: binding, human

| Molecule | Difference (log2), untreated vs GFP [log2] |
| --- | --- |
| B1 | -0.6949 |
| B2 | 1.692 |
| B3 | 1.1154 |
| B4 | 0.3485 |
| B5 | 0.6155 |

Each molecule was assayed on GFP-14-3-3β and its binding proteins (assay: GFP-14-3-3β co-IP with LC-MS/MS label-free quantification, untreated versus PP1c-treated). Details: PP1 vs untreated; LFQ intensities; 3 replicates each.
Design: species or system human

| Molecule | Difference (log2), PP1 vs untreated [log2] |
| --- | --- |
| B1 | 0.7375 |
| B2 | 0.7127 |
| B3 | 0.6799 |
| B4 | 0.6719 |
| B5 | 0.6679 |

From article PMC7367873, “Dissecting the sequence determinants for dephosphorylation by the catalytic subunits of phosphatases PP1 and PP2A” (Nature Communications, 2020)
